Target: T1, Hsmar1-Prime transposase (Hsmar1-P) (Homo sapiens, UniProt Q53H47 SEQ:1-343)
T1 chain: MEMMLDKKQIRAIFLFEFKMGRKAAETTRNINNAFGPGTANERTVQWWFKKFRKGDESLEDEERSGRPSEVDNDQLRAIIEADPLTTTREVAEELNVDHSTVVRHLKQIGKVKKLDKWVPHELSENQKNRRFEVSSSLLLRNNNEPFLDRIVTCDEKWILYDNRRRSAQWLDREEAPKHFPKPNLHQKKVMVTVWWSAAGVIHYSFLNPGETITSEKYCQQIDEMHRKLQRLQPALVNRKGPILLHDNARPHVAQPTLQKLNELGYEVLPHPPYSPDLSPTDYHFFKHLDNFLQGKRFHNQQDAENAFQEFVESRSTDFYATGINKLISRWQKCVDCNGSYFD
Test: cell_activity; HeLa cells, donor pHsmar1/neo plus helper; excision with 3 bp footprint, integration at TA
Details: tags: expressed from pFV-4a helper plasmid; chain copies: 2; 30 bp terminal inverted repeats in plasmid donor

B1: Hsmar1 transposon inverted repeats (left IR / right IR, flanking SV40-neo in pHsmar1/neo) (dsDNA)
DNA 1: TTAGGTTGGTGCAAAAGTAATTGCGGTTTT
DNA 2: AAAACCGCAATTACTTTTGCACCAACCTAA
  activity: ~20 fold increase in G418-resistant colonies

Reference: patent US20080279838, “Reconstructed Human Mariner Transposon Capable of Stable Gene Transfer Into Chromosomes in Vertebrates” (published 2008)
